Reference: patent US20080159996

Assays:
Test in all cases: cell_activity
[1] = system: ZFN 8196z-FokI E490K/I538K (ZFN224 pair member) (synthetic)
[2] = system: ZFN 8196z-FokI wt (ZFN215 and ZFN201 pair member) (synthetic)
[3] = system: ZFN 8266-FokI Q486E/I499L (ZFN224 pair member) (synthetic)
[4] = system: ZFN 8266-FokI wt (ZFN201 pair member) (synthetic); settings: pair ZFN201 with 8196z, PM1 cells, plasmid electroporation
[5] = system: ZFN 8267-FokI wt (ZFN215 pair member) (synthetic); settings: pair ZFN215 with 8196z, CD4+ T-cells, MOI 100, Cel-1 assay; 31.2% in PBMCs
[6] = pair ZFN224, CD4 T cells, conditions giving 35.6% CCR5 modification, Surveyor nuclease

AAACTGCAAAAG (double strand) [CCR5 168 half-site]
activity (% CCR5 alleles modified) ([1]; pair ZFN224, CD4+ T-cells, MOI 100, Cel-1 assay, 48.4% in Example 4): 14.9
activity (% CCR5 alleles modified) ([2]; pair ZFN201 with 8266, PM1 cells, plasmid electroporation): 2.4
activity (% CCR5 alleles modified) ([2]; pair ZFN215 with 8267, CD4+ T-cells, MOI 100, Cel-1 assay, 31.2% in PBMCs): 32.3

CCR2 off-target site
activity (% CCR2 alleles modified) [1, 6]: 4.1
activity (% CCR2 alleles modified) [3, 6]: 4.1

GATGAGGATGAC (double strand) [CCR5 r162 half-site]
activity (% CCR5 alleles modified) [4]: 2.4
activity (% CCR5 alleles modified) ([3]; pair ZFN224 with 8196z, CD4+ T-cells, MOI 100, Cel-1, Examples 14 and 17 state 8266 in ZFN224 but Example 1 states 8267): 14.9
activity (% CCR5 alleles modified) [5]: 32.3
